Among the data in the RNAGym collection of RNA variant scans (doi:10.7554/elife.80360) are self-cleavage values, retold here.

First the molecules themselves.
B1: HDV Ribozyme (parent)
chain: GGCCGGCAUGGUCCCAGCCUCCUCGCUGGCGCCGGCUGGGCAACAUUCCGAGGGGACCGUCCCCUCGGUAAUGGCGAAUGGGACCCA

In this series the parent is B1. As to the kind of experiment: self-cleavage, relative activity (ratio to wild type); higher = more cleavage; co-transcriptional.
Regarding A56C C63A, the self-cleavage is 1.04.

In the case of G28A C61U, the self-cleavage came to 0.0631. As to U9A A16C, the self-cleavage came out at 0.712. For the variant C13G G34A, the self-cleavage came to 0.0536.

Regarding G40A U46A, the self-cleavage is 0.437.

For the variant C33A G50C, the self-cleavage came to 0.203. Take C62U C84U: the self-cleavage was 0.819.

In the case of G67U G80A, the self-cleavage was 0.355.

A45C U46C: the self-cleavage worked out at 0.403.

In the case of A45C G82C, the self-cleavage amounted to 0.256. Take A42U G74U: the self-cleavage stood at 0.277. As for C4G U37A, the figure is 0.0462; as for C24U C66U, 0.629. For the variant C61G U72C, the self-cleavage came out at 0.401.

Regarding C66A A70C, the self-cleavage stood at 0.831. Under U69C A78C stands 0.322. As for U69C A77U, the self-cleavage stood at 0.598. As for G2C U60C, the self-cleavage was determined as 0.0545. Turning to G53U G54U, the self-cleavage came out at 0.831. Take C62G G74A: the self-cleavage was 0.402.

As for G2C C14G, the self-cleavage turned out to be 0.0773. Under C18A G73U stands 0.0941. As for C19A C64U, the figure is 0.128; as for G54C C66A, 0.814.

With U37A A87U, the self-cleavage worked out at 0.325.

G67C G80A: the self-cleavage amounted to 0.464. As for G11C C85U, the figure is 0.266; as for C44U G55A, 0.831; as for G17C U20A, 0.0573.

Regarding G40U G68A, the self-cleavage amounted to 0.722.

On to U69C C85A, for which the self-cleavage stood at 1.14. Under G38U A70G stands 0.227. With G40A G68C, the self-cleavage was 0.794. As for C18A G80C, the figure is 0; as for A77C U79A, 0.297. Turning to G10A C33U, the self-cleavage was 0.554.

On to U12A G50C, for which the self-cleavage turned out to be 0.332. As for U37G G55A, the figure is 0.0831; as for C32G G55A, 0.0841. Under G59U C85U stands 0.935; under C19G G29A, 0.0378; under G38C A87G, 0.155. Take C21A G35C: the self-cleavage stood at 0.177. U60A C86G: the self-cleavage was determined as 0.851. Under G35A C63A stands 0.332; under U12C G52A, 0.554; under A16U C49U, 0.918.

With G10U G31C, the self-cleavage was found to be 0.158. As for U20A A45C, the self-cleavage was 0.0639. Take G25A G80U: the self-cleavage was 0.0923. Under C62A A83G stands 0.683; under A45C U47A, 0.911. Under C7U C84U stands 0.686; under C22U G25C, 0.0852; under C33G G40U, 0.233.

With A43U U69G, the self-cleavage amounted to 0.199. Regarding A43U U69A, the self-cleavage was determined as 0.449. As for G10A C14U, the figure is 0.59; as for C26U C32G, 0.125; as for A43U A87G, 0.274. As for U27C G29U, the self-cleavage was determined as 0.145. As for C13A C85U, the figure is 0.141; as for G5U U37C, 0.519. As for C36A G50A, the self-cleavage was determined as 0.151.

C15A C85U: the self-cleavage was determined as 0.755.

Take G5C C14G: the self-cleavage turned out to be 0.111. As for A71G G76U, the figure is 1.1; as for C13G G35A, 0.0449.

For the variant C24G C75A, the self-cleavage amounted to 0.0277.

With G6C G28A, the self-cleavage amounted to 0.0545. As for C66A A71C, the figure is 0.866. As for G25U C49A, the figure is 0.175; as for C57U C61G, 0.967; as for A56U U72C, 0.489. As for A42U A51U, the figure is 0.509; as for G28A C41A, 0.13.

With U23A G50C, the self-cleavage turned out to be 0.831. As for G17U C61G, the figure is 0.424; as for A77U A83U, 0.0898.

In the case of G5C C48A, the self-cleavage is 0.0875. As for C30G A42U, the figure is 0.

In the case of G54A G81A, the self-cleavage was determined as 0.511. With U60A C75G, the self-cleavage was found to be 0.0978. As for A78G A87U, the figure is 0.862; as for C48A G59U, 1.11. On to G25A G73A, for which the self-cleavage was found to be 0.0583. As for U69A C86A, the self-cleavage was found to be 1. Turning to G10U U69G, the self-cleavage came out at 0.815. Under G6C A83U stands 0.0692; under A8G C26A, 1.11; under C19A C26U, 0.929. As for C15U C86U, the figure is 0.895; as for G1C C86G, 0.268; as for U46A C84U, 0.397. G53U U69C: the self-cleavage stood at 0.931. Under U20G C75A stands 0.0978; under C49U U72C, 0.554. As to C15G C62G, the self-cleavage amounted to 0.237. Regarding G2U C21G, the self-cleavage was found to be 0.0594.

G25A G76U: the self-cleavage stood at 0.3. Consider U9C C57A, for which the self-cleavage was determined as 1.09. As for C22G G55U, the self-cleavage is 0.0382. Turning to C21U C62A, the self-cleavage came to 0.214.

Regarding A42G G82C, the self-cleavage was 0.0396. With U20C C75G, the self-cleavage is 0. Under U20C C75U stands 0; under U37C G52U, 0.997; under C62G G73U, 0.193. Under U72G C86U stands 0.705; under G73U C85G, 0.437. In the case of C15U U27A, the self-cleavage came to 0.63. Turning to C61A C84U, the self-cleavage was determined as 0.831. As to G35A C36U, the self-cleavage was determined as 0.0817. Consider G6A C15U, for which the self-cleavage is 0.431.

For the variant U20G U23G, the self-cleavage worked out at 0.185. On to G34A A42G, for which the self-cleavage came to 0.178. As to G29A A56G, the self-cleavage was found to be 0.224.

With U27G A83U, the self-cleavage was 0.791. As for U23G G25A, the figure is 0.142; as for G11U U79G, 0.231; as for U9A G55C, 1.26. Under C22A G76A stands 0.212; under C26U U69A, 1.11.

Consider G50U A70G, for which the self-cleavage came to 0.846.

Turning to U9C C36G, the self-cleavage is 0. As to C3U A70C, the self-cleavage worked out at 0.566. Under C24G G81U stands 0.0707; under C57G A87C, 0.98.

As to G59U C66G, the self-cleavage amounted to 0.981. On to C57U C86G, for which the self-cleavage stood at 0.862. With C58G G73A, the self-cleavage stood at 0.406.

With C30U G74C, the self-cleavage is 0.113. With C44A A77G, the self-cleavage was 0.396.

As to G28C G73C, the self-cleavage amounted to 0.148. Under C7A A51G stands 0.635; under G38A G81U, 0.176; under A42G A83C, 0.119. As to G40U U72C, the self-cleavage was 0.176.

On to C3A G5U, for which the self-cleavage came to 0.00831. In the case of C4U C49A, the self-cleavage came out at 0.332. Consider G73C C84A, for which the self-cleavage came to 0.277. Under G73C C84U stands 0.321. Under C32A C48A stands 0.116; under G29U G81A, 0.12. As for C21U G54A, the figure is 0.159. Regarding C22U U69G, the self-cleavage stood at 0.759. As for A51U G55U, the figure is 0.989; as for U23A U69A, 1.01; as for C26G C48G, 1.02.

Turning to U12G G74C, the self-cleavage was 0.151. With A42C G59U, the self-cleavage came to 0.424.

Take U9A C24U: the self-cleavage came out at 0.449. Under C21A C62G stands 0.138.

Take G10C C36G: the self-cleavage amounted to 0.0831.

Turning to G11C C13U, the self-cleavage stood at 0.0852. Under U12C C64U stands 0.665; under G28U A43G, 0.131. As for A16G G53U, the figure is 1.02; as for G10A U79A, 0.302. Consider G10A U79C, for which the self-cleavage amounted to 0.0882. Regarding G2C U12G, the self-cleavage was determined as 0.0426.

For C18G U60G, the self-cleavage stood at 0.0791. As for G6A G28C, the figure is 0; as for G55U G76C, 1.08; as for G2A G25U, 0.161. As for A8U C58A, the figure is 0.862. Under C21U U47C stands 0.271.
